{
  "source": "patent US20240287172A1",
  "about": "(SCIRHOM, published 2024)",
  "target": "T1, hiR2-FL-G563D-T7 (human, UniProt Q6PJF5 1-856)",
  "T1 sequence": "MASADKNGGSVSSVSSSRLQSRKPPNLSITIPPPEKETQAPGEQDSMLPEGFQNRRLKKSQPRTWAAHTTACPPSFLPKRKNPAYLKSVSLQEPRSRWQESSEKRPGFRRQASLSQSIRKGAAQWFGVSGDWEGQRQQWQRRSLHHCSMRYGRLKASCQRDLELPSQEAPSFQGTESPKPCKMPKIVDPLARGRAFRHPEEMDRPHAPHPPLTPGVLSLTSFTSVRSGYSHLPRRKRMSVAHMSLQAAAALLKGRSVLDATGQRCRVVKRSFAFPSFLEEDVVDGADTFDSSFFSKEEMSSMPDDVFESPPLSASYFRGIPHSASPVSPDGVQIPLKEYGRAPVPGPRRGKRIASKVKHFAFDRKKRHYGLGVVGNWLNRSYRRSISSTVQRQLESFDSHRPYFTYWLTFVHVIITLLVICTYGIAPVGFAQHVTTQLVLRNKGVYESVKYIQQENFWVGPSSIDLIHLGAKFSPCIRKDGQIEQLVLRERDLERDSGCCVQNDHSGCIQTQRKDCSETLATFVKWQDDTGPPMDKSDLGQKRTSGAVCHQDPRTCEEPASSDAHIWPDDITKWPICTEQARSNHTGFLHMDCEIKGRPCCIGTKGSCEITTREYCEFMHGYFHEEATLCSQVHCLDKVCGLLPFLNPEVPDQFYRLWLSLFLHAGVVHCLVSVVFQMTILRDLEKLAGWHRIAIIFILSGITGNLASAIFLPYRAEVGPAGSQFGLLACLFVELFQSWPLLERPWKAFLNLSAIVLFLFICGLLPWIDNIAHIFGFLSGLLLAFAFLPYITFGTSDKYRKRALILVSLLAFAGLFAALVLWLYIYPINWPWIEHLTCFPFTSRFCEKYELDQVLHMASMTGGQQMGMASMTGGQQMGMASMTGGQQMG",
  "assay": "FACS, MEF-DKO cells, 3 µg/ml",
  "how_it_was_run": "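MEF-DKO cells expressing T7-tagged full-length hiR2 point mutants were stained on ice for 1 h with purified antibodies at 3 μg/ml in FACS buffer. Detection used PE-conjugated goat anti-mouse IgG F(ab′)2 (1:100, 1 h on ice), read by flow cytometry; buffer-only wells served as controls.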",
  "data": [
    {"binder": "antibody 50 (antibody, V domains shown, mouse IgG, kappa light chain; also called clone #50; purified antibody 50) VH: QVQLQQSGAELVRPGASVKVSCKASGYAFSNYLIEWVKQRPGQGLEWIGVINPGSGFTKYNEKFKGKATLTADKSSSTAYMQLSSLTSEDSAVYFCARGLYRAMDYWGQGTSVTVSS VL: DIQMTQSPASQSASLGESVTITCLASQTIGTWLAWYQQKPGKSPQLLIYAAASLADGVPSRFSGGGSGTKFSFKISSLQAEDFVNYYCQQIYSTPYTFGGGTKLEIK", "values": [
      {"measurement": "loss of binding vs wild type", "result": "≥ 30", "unit": "%"}
    ]}
  ]
}
